Experimental findings from paper PMC2649783 are described below.

The data set deals with HUαβ (Escherichia coli (overexpressed in …, UniProt P0ACF0;P0ACF4 1-90;1-90)). The data set can be described thus: ITC.
Chain of HUαβ (Escherichia coli (P0ACF0 whole entry, chain 1 of 2): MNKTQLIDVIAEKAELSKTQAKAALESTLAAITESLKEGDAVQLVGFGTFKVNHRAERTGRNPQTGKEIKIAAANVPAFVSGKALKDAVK
Chain of HUαβ (Escherichia coli (P0ACF4 whole entry, chain 2 of 2): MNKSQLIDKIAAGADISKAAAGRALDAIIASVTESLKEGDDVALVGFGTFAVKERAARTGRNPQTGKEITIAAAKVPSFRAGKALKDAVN

B1: 38 bp DNA (dsDNA)
DNA 1: CGGTCAGTTCAAGCCCTTCTAAGTTTGTAGACACCAGC
DNA 2: GCTGGTGTCTACAAACTTAGAAGGGCTTGAACTGACCG
Turning to B1, the binding result is recorded as “binds”.
